Results as given in article PMC7954794, “Protein context shapes the specificity of SH3 domain-mediated interactions in vivo” (Nature Communications, 2021).

System: growth of yeast strains under 51 stress conditions
Experiment: Growth assays in 51 stress conditions (Fig. 1E-F, S2D, S5B)
Type: cell-based, Saccharomyces cerevisiae
Set-up: key to Growth (Fig. S2D) / growth of ABP1 SH3-swapped strains in stress condition: log2 colony size, average of median per strain (growth score)
Settings: for Growth (Fig. S2D): ABP1 SH3-swapped strains; for growth of ABP1 SH3-swapped strains in stress condition: FigS2D
Method in brief: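 Yeast WT, SH3-deleted, KO, SH3-swapped and SH3-shuffled strains pinned in 1536 format, 12 replicates each; pregrown on YPD 2 days at 30 °C, then replicated onto 51 media at 37 °C and imaged every 2 h. Growth score = mean of per-plate median log2 colony size at 74 h.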

B1: PEX13 (protein, UniProt P80667 1-386, looked up)
Peroxisomal membrane protein …: MSSTAVPRPKPWETSASLEEPQRNAQSLSAMMTSNQQDSRPTEESNNSNSASESAPEVLPRPAALNSSGTYGESNTIPGIYGNSNYGIPYDNNPYSMNSIYGNSIGRYGYGGSYYGNNYGSFYGGGYGAGAGYGMNNGSGLGESTKATFQLIESLIGAVTGFAQMLESTYMATHNSFFTMISVAEQFGNLKEMLGSFFGIFAIMKFLKKILYRATKGRLGIPPKNFAESEGSKNKLIEDFQKFNDSGTINSNEKATRRKISWKPLLFFLMAVFGFPYLLNKFITKLQTSGTIRASQGNGSEPIDPSKLEFARALYDFVPENPEMEVALKKGDLMAILSKKDPLGRDSDWWKVRTKNGNIGYIPYNYIEIIKRRKKIEHVDDETRTH
- Growth (Fig. S2D) (Bathophenanthroline.0.1uM): 10.7929
- Growth (Fig. S2D) (Bathophenanthroline.10uM): 10.6448
- Growth (Fig. S2D) (Bathophenanthroline.1uM): 10.7999
- Growth (Fig. S2D) (CaCl2.100mM): 10.8263
- Growth (Fig. S2D) (CaCl2.250mM): 10.7201
- Growth (Fig. S2D) (CaCl2.500mM): 10.3034
- Growth (Fig. S2D) (Caffein.10mM): 10.0127
- Growth (Fig. S2D) (Caffein.2mM): 10.9279
- Growth (Fig. S2D) (CdCl2.100uM): 9.606
- Growth (Fig. S2D) (CdCl2.10uM): 10.8888
- Growth (Fig. S2D) (CdCl2.50uM): 9.97
- Growth (Fig. S2D) (CuSO4.1mM): 10.4898
- Growth (Fig. S2D) (CuSO4.5mM): 8.152
- Growth (Fig. S2D) (Cycloheximide.0.05.uM): 11.0541
- Growth (Fig. S2D) (Cycloheximide.0.2.uM): 10.6387
- Growth (Fig. S2D) (Cycloheximide.0.5.uM): 10.1719
- Growth (Fig. S2D) (DMSO.2.): 11.0404
- Growth (Fig. S2D) (DMSO.6.): 10.0301
- Growth (Fig. S2D) (DMSO.8.): 9.367
- Growth (Fig. S2D) (Ethanol.2.): 10.7664
- Growth (Fig. S2D) (Ethanol.6.): 10.3235
- Growth (Fig. S2D) (Ethanol.8.): 10.0926
- Growth (Fig. S2D) (Galactose.2.): 10.787
- Growth (Fig. S2D) (Glycerol.2.): 9.849
- Growth (Fig. S2D) (Hydroxyurea.25mM): 10.7235
- Growth (Fig. S2D) (Hygromycin.190uM): 10.9621
- Growth (Fig. S2D) (Hygromycin.19uM): 10.9745
- Growth (Fig. S2D) (Hygromycin.95uM): 11.0265
- Growth (Fig. S2D) (MMS.0.004.): 10.9502
- Growth (Fig. S2D) (MMS.0.02.): 10.7047
- Growth (Fig. S2D) (MMS.0.04.): 10.0276
- Growth (Fig. S2D) (Menadione.100uM): 10.6371
- Growth (Fig. S2D) (Menadione.200uM): 10.4195
- Growth (Fig. S2D) (Menadione.50uM): 10.8434
- Growth (Fig. S2D) (NaCl.0.25M): 10.6874
- Growth (Fig. S2D) (NaCl.1M): 9.71
- Growth (Fig. S2D) (Nitroquinoline.10uM): 10.7399
- Growth (Fig. S2D) (Nitroquinoline.50uM): 10.726
- Growth (Fig. S2D) (Nystatin.0.01uM): 11.0207
- Growth (Fig. S2D) (Nystatin.0.1uM): 11.0033
- Growth (Fig. S2D) (Raffinose.2.): 10.9918
- Growth (Fig. S2D) (Rapamycin.10nM): 9.862
- Growth (Fig. S2D) (Rapamycin.50nM): 9.428
- Growth (Fig. S2D) (SC.pH3): 10.3898
- Growth (Fig. S2D) (SC.pH6): 10.9788
- Growth (Fig. S2D) (SDS.0.01.): 10.9752
- Growth (Fig. S2D) (SDS.0.02.): 10.9697
- Growth (Fig. S2D) (SDS.0.05.): 10.895
- Growth (Fig. S2D) (Sorbitol.10mM): 10.9735
- Growth (Fig. S2D) (Sorbitol.1mM): 11.0343
- Growth (Fig. S2D) (Sorbitol.5mM): 10.9175

B2: PIN3 (protein, UniProt Q06449 2-215, looked up)
[PSI+] inducibility protein 3: SASLINRSLTNIRTELDFLKGSNVISNDVYDQINKSLPAKWDPANAPRNASPASLEYVEALYQFDPQQDGDLGLKPGDKVQLLEKLSPEWYKGSCNGRTGIFPANYVKPAFSGSNGPSNLPPPPQYKAQELQQIPTQNSAASSYQQQPFPPPSTNYYQQPQQQPQQAPPPQQQQQQQQHQSSHSHLKSFGSKLGNAAIFGAGASIGSDIVNNIF
- growth of ABP1 SH3-swapped strains in stress condition (Bathophenanthroline.0.1uM): 10.8166
- growth of ABP1 SH3-swapped strains in stress condition (Bathophenanthroline.10uM): 10.6603
- growth of ABP1 SH3-swapped strains in stress condition (Bathophenanthroline.1uM): 10.7601
- growth of ABP1 SH3-swapped strains in stress condition (CaCl2.100mM): 10.8086
- growth of ABP1 SH3-swapped strains in stress condition (CaCl2.250mM): 10.7002
- growth of ABP1 SH3-swapped strains in stress condition (CaCl2.500mM): 10.193
- growth of ABP1 SH3-swapped strains in stress condition (Caffein.10mM): 10.1104
- growth of ABP1 SH3-swapped strains in stress condition (Caffein.2mM): 10.9501
- growth of ABP1 SH3-swapped strains in stress condition (CdCl2.100uM): 9.413
- growth of ABP1 SH3-swapped strains in stress condition (CdCl2.10uM): 10.8515
- growth of ABP1 SH3-swapped strains in stress condition (CdCl2.50uM): 9.821
- growth of ABP1 SH3-swapped strains in stress condition (CuSO4.1mM): 10.439
- growth of ABP1 SH3-swapped strains in stress condition (CuSO4.5mM): 7.85
- growth of ABP1 SH3-swapped strains in stress condition (Cycloheximide.0.05.uM): 11.0946
- growth of ABP1 SH3-swapped strains in stress condition (Cycloheximide.0.2.uM): 10.6691
- growth of ABP1 SH3-swapped strains in stress condition (Cycloheximide.0.5.uM): 10.0558
- growth of ABP1 SH3-swapped strains in stress condition (DMSO.2.): 10.999
- growth of ABP1 SH3-swapped strains in stress condition (DMSO.6.): 9.863
- growth of ABP1 SH3-swapped strains in stress condition (DMSO.8.): 9.083
- growth of ABP1 SH3-swapped strains in stress condition (Ethanol.2.): 10.7656
- growth of ABP1 SH3-swapped strains in stress condition (Ethanol.6.): 10.3279
- growth of ABP1 SH3-swapped strains in stress condition (Ethanol.8.): 10.22
- growth of ABP1 SH3-swapped strains in stress condition (Galactose.2.): 10.8019
- growth of ABP1 SH3-swapped strains in stress condition (Glycerol.2.): 9.823
- growth of ABP1 SH3-swapped strains in stress condition (Hydroxyurea.25mM): 10.7882
- growth of ABP1 SH3-swapped strains in stress condition (Hygromycin.190uM): 10.9875
- growth of ABP1 SH3-swapped strains in stress condition (Hygromycin.19uM): 10.9831
- growth of ABP1 SH3-swapped strains in stress condition (Hygromycin.95uM): 10.9742
- growth of ABP1 SH3-swapped strains in stress condition (MMS.0.004.): 10.989
- growth of ABP1 SH3-swapped strains in stress condition (MMS.0.02.): 10.7926
- growth of ABP1 SH3-swapped strains in stress condition (MMS.0.04.): 10.0504
- growth of ABP1 SH3-swapped strains in stress condition (Menadione.100uM): 10.5651
- growth of ABP1 SH3-swapped strains in stress condition (Menadione.200uM): 10.4599
- growth of ABP1 SH3-swapped strains in stress condition (Menadione.50uM): 10.8547
- growth of ABP1 SH3-swapped strains in stress condition (NaCl.0.25M): 10.7663
- growth of ABP1 SH3-swapped strains in stress condition (NaCl.1M): 9.587
- growth of ABP1 SH3-swapped strains in stress condition (Nitroquinoline.10uM): 10.765
- growth of ABP1 SH3-swapped strains in stress condition (Nitroquinoline.50uM): 10.634
- growth of ABP1 SH3-swapped strains in stress condition (Nystatin.0.01uM): 10.9089
- growth of ABP1 SH3-swapped strains in stress condition (Nystatin.0.1uM): 10.9679
- growth of ABP1 SH3-swapped strains in stress condition (Raffinose.2.): 10.9939
- growth of ABP1 SH3-swapped strains in stress condition (Rapamycin.10nM): 9.886
- growth of ABP1 SH3-swapped strains in stress condition (Rapamycin.50nM): 9.402
- growth of ABP1 SH3-swapped strains in stress condition (SC.pH3): 10.4061
- growth of ABP1 SH3-swapped strains in stress condition (SC.pH6): 11.0349
- growth of ABP1 SH3-swapped strains in stress condition (SDS.0.01.): 10.9539
- growth of ABP1 SH3-swapped strains in stress condition (SDS.0.02.): 10.9685
- growth of ABP1 SH3-swapped strains in stress condition (SDS.0.05.): 10.8165
- growth of ABP1 SH3-swapped strains in stress condition (Sorbitol.10mM): 10.9792
- growth of ABP1 SH3-swapped strains in stress condition (Sorbitol.1mM): 10.9728
- growth of ABP1 SH3-swapped strains in stress condition (Sorbitol.5mM): 10.9245
